# B1: 2A2 Fab (Fab, V domains shown)
# VH: EVQLQQSGPELEKPGASVKISCKASGYSITDYNMNWVKLSNGKSLEWIGNIDPSHGGTTYNQKFKGKATLTVDKSSSTAYMQLKSLTSEDSAVYHCARSTLYGNSAMDCWGQGTSVTVSS
# VL: SIVMTQTPKFLLVPAGDRVTITCKASQSVNNDVTWYQQKPGQSPKLLIYYASNRYTGVPDRFTGSGYGTDFTFTISTVQAEDLAVYFCQQDYSSPLTFGAGTKLEL
# notes: also called mAb 2A2; 2A2.2a; source: Freestyle 293-F or 293-S cells, transfected, purified (KappaSelect, MonoS cation exchange)
# B2: RUPA-44 Fab (Fab, V domains shown)
# VH: QLQLQESGPGLVKPSETLSLTCTVSGGSISRSPYYWGWIRQPPGKGLEWFGSIYNNGSTYYNPPLKSRLTISVDTSKNQFSLKLSSVTAADTAVYYCARHGGSTGMKVVVIAPPDYWGQGTLVTVSS
# VL: DIQMTQSPATLSASVGDRVTITCRASQSISSWLAWYQQKPGEAPKLLIYKASSLQSGVPSRFSGSGSGTKFSLTISSLQPDDFATFYCQQYHSYPYTFGQGTKLEIK
# notes: source: Freestyle 293-F or 293-S cells, transfected, purified (KappaSelect, MonoS cation exchange)
# B3: 18F25 Fab (Fab, V domains shown)
# VH: QVQLQQSGAELARPGASVKLSCKASGYTFTNYWMQWVKQRPGQGLEWFGAIYPGDGDTRYTQKFKGKATLTADKSSSTAYMQLSSLASEDSAVYYCARSLYLGAMDYWGQGTSVTVSS
# VL: DIVMTQSHKFMSTSVGDRVSITCKASQDVTNDVAWYQQKPGQSPKLLIYSASYRYTGVPDRFTGSGSGTDFIFTISSVQAEDLAVYYCQQHYSAPPTFGGGTKLEIK
# notes: also called mAb 18F25; 18F25.1; source: Freestyle 293-F or 293-S cells, transfected, purified (KappaSelect, MonoS cation exchange)
# B4: RUPA-47 Fab (Fab, V domains shown)
# VH: QVQLVQSGAEVKKPGASVKLSCTASGYTFTNFGITWVRQAPGQGLEWMAWISVYSGDTDYAQRFQGRVTMTTDTSTRTAYMEMRSLSFDDTAVYYCVRGGRDSPILGGYWGQGTLVTVSS
# VL: EIVLTQSPGTLSLSPGERVTLSCRASQSVRSMYLAWYQQKPGQAPRLLIHGASIRATGIPDRFSGSGSGTDFTLTISRLEREDFAVYYCHQYGSSPLTFGGGTKVESK
# notes: as for B2
# B5: RUPA-71 Fab (Fab, V domains shown)
# VH: EEQLVESGGGLVKPGRSLRLSCSASGFTLGDYAVTWFRQASGKEPEWVGVIRTKDEGGTTEYAASVKGRFSILRDDSKSIAHLQMNSLKIEDTAVYYCTRNGLRWYDSSGPRGWAFDIWGPGTLVVVSS
# VL: EIVMTQSPATVSVSPGERATLSCRTSQSVSNKLAWYQQKPGQAPRLLIYGASTRATGIPARFSGSGSGTQFTLTISSLQSEDFAVYYCQQYNNWPPWTFGRGTKVEIK
# notes: as for B2
# B6: Pfs48/45 (endogenous) (natural protein)
# chain: NNDFCKPSSLNSEISGFIGYKCNFSNEGVHNLKPDMRERRSIFCTIHSYFIYDKIRLIIPKKSSSPEFKILPEKCFQKVYTDYENRVETDISELGLIEYEIEENDTNPNYNERTITISPFSPKDIEFFCFCDNTEKVISSIEGRSAMVHVRVLKYPHNILFTNLTNDLFTYLPKTYNESNFVSNVLEVELNDGELFVLACELINKKCFQEGKEKALYKSNKIIYHKNLTIFKAPFYVTSKDVNTECTCKFKNNNYKIVLKPKYEKKVIHGCNFSSNVSSKHTFTDSLDISLVDDSAHISCNVHLSEPKYNHLVGLNCPGDIIPDCFFQVYQPESEELEPSNIVYLDSQINIGDIEYYEDAEGDDKIKLFGIVGSIPKTTSFTCICKKDKKSAYMTVTID
# Legend:
# [1] = biological target: T1, Pfs230 fused C-terminally with a 3xFLAG-C-tag (endogenous, parasite line iGP2^230-tag) (Plasmodium falciparum (endogenous in …, UniProt P68874)); experiment: native gel or EMSA; conditions: both partners purified
# T1 construct: not shown: 3xFLAG, C-terminal, kept
# T1 sequence (P68874 21-3135): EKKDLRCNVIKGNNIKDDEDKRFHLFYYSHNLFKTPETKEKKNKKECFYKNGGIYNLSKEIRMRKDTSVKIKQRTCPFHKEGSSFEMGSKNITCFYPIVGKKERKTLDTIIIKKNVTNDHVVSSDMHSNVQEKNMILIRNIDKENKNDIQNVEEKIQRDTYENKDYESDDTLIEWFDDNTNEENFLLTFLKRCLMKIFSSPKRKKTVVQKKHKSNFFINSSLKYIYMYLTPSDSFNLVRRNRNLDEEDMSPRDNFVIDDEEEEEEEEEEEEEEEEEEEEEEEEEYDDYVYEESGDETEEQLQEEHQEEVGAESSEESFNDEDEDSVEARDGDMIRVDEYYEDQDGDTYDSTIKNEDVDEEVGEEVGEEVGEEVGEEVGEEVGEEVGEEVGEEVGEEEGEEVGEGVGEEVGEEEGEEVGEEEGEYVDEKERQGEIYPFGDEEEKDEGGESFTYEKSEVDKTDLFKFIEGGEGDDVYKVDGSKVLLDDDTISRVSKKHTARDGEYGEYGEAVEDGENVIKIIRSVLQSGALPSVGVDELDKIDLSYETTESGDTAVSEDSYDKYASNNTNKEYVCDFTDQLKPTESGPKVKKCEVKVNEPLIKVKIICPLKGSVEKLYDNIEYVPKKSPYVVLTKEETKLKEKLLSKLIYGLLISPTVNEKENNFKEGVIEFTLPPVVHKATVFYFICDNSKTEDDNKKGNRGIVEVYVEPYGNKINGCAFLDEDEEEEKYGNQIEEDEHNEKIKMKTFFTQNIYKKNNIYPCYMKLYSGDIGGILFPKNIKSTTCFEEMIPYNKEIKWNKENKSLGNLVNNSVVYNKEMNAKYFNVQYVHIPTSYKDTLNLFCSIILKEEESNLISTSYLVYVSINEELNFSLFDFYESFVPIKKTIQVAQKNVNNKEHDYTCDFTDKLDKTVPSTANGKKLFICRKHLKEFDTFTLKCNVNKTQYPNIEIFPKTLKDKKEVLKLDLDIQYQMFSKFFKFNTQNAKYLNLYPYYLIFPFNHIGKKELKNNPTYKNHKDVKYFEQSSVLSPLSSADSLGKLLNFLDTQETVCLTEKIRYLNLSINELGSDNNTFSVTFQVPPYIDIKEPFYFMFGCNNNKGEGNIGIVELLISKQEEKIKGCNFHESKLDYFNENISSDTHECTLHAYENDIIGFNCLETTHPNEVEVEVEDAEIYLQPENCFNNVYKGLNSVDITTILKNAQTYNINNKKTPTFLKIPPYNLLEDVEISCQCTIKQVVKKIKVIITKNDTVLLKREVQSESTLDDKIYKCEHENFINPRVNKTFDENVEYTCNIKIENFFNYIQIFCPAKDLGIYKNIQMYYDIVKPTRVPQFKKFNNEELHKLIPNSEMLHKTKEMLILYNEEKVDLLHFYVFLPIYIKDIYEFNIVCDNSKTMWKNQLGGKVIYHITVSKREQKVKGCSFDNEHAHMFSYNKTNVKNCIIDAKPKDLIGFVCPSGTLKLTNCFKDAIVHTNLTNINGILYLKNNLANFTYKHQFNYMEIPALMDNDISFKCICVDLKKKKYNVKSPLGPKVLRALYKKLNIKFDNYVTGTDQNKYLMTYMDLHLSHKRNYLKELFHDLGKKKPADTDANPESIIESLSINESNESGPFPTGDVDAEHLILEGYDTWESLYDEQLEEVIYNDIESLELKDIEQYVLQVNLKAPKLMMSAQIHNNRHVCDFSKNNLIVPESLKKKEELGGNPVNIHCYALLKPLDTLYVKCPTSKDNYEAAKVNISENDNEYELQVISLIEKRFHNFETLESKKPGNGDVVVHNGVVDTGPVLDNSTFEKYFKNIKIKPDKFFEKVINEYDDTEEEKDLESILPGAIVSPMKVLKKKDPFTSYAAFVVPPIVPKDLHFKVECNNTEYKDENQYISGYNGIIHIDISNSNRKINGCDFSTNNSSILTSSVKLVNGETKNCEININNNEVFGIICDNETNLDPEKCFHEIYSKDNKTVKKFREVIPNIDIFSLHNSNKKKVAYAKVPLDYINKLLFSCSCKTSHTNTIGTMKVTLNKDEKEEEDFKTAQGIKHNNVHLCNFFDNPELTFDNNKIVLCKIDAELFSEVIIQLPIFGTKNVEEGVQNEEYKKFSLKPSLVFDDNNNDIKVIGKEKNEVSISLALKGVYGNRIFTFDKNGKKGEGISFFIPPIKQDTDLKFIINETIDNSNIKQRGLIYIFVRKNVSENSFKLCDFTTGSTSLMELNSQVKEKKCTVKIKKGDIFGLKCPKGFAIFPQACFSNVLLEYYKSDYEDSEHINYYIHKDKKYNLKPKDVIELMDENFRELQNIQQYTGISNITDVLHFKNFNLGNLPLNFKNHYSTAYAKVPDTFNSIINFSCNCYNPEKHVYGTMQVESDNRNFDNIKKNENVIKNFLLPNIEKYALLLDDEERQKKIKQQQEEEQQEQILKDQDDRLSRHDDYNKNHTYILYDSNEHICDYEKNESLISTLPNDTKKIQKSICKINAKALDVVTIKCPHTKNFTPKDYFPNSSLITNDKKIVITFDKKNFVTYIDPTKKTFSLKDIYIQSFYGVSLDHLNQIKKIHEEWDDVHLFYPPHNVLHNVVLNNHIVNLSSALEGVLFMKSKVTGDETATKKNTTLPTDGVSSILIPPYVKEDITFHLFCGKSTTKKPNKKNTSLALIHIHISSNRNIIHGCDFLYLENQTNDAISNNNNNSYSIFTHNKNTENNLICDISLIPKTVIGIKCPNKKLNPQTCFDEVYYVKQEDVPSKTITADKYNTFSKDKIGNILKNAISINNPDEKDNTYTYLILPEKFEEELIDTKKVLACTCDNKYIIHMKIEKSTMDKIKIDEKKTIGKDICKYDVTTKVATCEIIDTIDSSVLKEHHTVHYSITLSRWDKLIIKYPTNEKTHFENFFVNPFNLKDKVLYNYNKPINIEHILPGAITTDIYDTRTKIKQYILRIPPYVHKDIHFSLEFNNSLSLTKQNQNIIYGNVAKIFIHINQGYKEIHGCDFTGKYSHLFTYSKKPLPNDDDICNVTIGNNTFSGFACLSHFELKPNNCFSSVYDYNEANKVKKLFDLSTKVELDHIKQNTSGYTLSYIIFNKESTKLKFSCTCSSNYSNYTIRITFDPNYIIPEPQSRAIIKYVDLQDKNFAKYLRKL
# [2] = biological target: Pfs48/45 (endogenous) (Plasmodium falciparum (endogenous in …, UniProt Q8I6T1)); experiment: cryo-EM structure; conditions: both partners purified
# [3] = biological target: T2, Pfs230D7 (recombinant, WT) (Plasmodium falciparum 3D7, UniProt P68874); experiment: SPR; conditions: both partners purified
# T2 construct: source: wheat germ cell-free extract WEPRO7240H with Disulfide Bond Enhancer Enzyme Set, purified (Ni Sepharose 6 Fast Flow)
# [4] = biological target: T3, Pfs230:Pfs48/45 complex (endogenous, FLAG-tag purified) (Plasmodium falciparum (isolate 3D7)., UniProt P68874;Q8I6T1); experiment: native gel or EMSA; conditions: both partners purified
# T3 construct: not shown: 3xFLAG, C-terminal, kept
# [5] = biological target: T4, Pfs230 fused C-terminally with a 3xFLAG-C-tag (endogenous, parasite line iGP2^230-tag) (Plasmodium falciparum (endogenous in …, UniProt P68874 21-3135)); experiment: affinity purification with mass spectrometry; conditions: partners not purified
# T4 construct: not shown: 3xFLAG, C-terminal, kept
Binder,binding result [1],binding result [2],binding result [4],other results
B1,binds,–,–,–
B2,–,binds,–,–
B3,–,–,–,Kd [3]: 1.8 nM
B4,no binding (tested: tenfold molar excess Fab),–,binds,–
B5,–,binds,binds,–
B6,–,–,–,binding result [5]: binds

# From paper doi:10.1101/2025.02.14.638310 (bioRxiv, 2025)
